This note sets out measurements from publication PMC5433843.

B1: EGFP-Mps1^WT [Drosophila] / MBP-PP1-87B [Drosophila] (parent)
chain 1: MTTPVPRRTKDMMALGLDSDSEDDFNTPYRPRQAAAGERKQQPVASFQVQTRGKENEPHPLPINMLPRRVSELTMMDSDSDEEDIKSNHNLNCAILNDSFVLSPSQELTNSNSNITTRRTPSAAPLKQSDSNLSFLGRFNDMGINCSSQGSPVANSEKQVAKKTAPTLQAAPSATERRPLQETETPLRNELPSTSKTKPDADFITPQVRTIGSTLAGKSRSAVSNDFRAQKVLFQTPMTVSRAAPVASDSISFSLCDTITESPDIPEPPKKAEPPKSQHPSKKSLDHVFRESDKDNVPDKVDNVEPKELVSIPAVAVPPEQPSHKTSNILKIKNHEYTIDKKLGCGGSSSVFLARRSDSGNEFALKVVDLQADPQVVQGYLNETKLLAKLQGNVCVVALYDYQLVREESKLYMVMEKGDCDLNKILQSYTTNLPLYSLMNILYQMLQAVNYIHQHGVIHSDLKPANFLMVSGRLKLIDFGIASNIAVDSTSIIKFSQAGTFNYISPEALTDTSTGNSPMRRADQPKIKISTKSDVWSLGCILYLLLYQKTPFGHIRNVYAKMSAITTPGTSIEYPAIPPYYPIMLVHMAKNCLQLNPKKRPSCTELLQYPFHMIIPLQNLQIPSRTANSN
chain 2: MGDVMNIDSIISRLLEVRGARPGKNVQLSEGEIRGLCLKSREIFLSQPILLELEAPLKICGDIHGQYYDLLRLFEYGGFPPESNYLFLGDYVDRGKQSLETICLLLAYKIKYSENFFLLRGNHECASINRIYGFYDECKRRYSIKLWKTFTDCFNCLPVAAIVDEKIFCCHGGLSPDLTSMEQIRRIMRPTDVPDQGLLCDLLWSDPDKDTMGWGENDRGVSFTFGAEVVAKFLQKHEFDLICRAHQVVEDGYEFFAKRMLVTLFSAPNYCGEFDNAGAMMSVDDTLMCSFQILKPADKRKK

This experiment covers variants of B1. Nature of the experiment: pull-down (MBP-PP1-87B beads, S2 cell lysates), western blot chemiluminescence quantification. Particulars: with MBP-PP1-87B [Drosophila]; at least two independent experiments; mean ± SD; parent: 1; read off a plot. For orientation: A western blot detects proteins with antibodies after separation by electrophoresis.
In the case of chain 1 K231A F234A, the ratio to parent came to 0.3.
